Experimental data published in US20190000964A1.

Key:
[1] = biological target: human CCR5 receptor (hCCR5) (human) (UniProt P51681); assay: inhibition of gp120/sCD4 complex binding to CCR5-expressing Cf2Th cells by competing peptide
[2] = biological target: human CCR5 receptor (hCCR5) (human) (UniProt P51681)
[3] = biological target: human CCR5 receptor (hCCR5) (human) (UniProt P51681); assay: 0.5 nM non-labeled gp120 Bal against 0.5 nM FITC-gp120Bal on Cf2Th/synCCR5 cells with sCD4

human CCR5 receptor (hCCR5) (human), sequence (P51681 whole entry): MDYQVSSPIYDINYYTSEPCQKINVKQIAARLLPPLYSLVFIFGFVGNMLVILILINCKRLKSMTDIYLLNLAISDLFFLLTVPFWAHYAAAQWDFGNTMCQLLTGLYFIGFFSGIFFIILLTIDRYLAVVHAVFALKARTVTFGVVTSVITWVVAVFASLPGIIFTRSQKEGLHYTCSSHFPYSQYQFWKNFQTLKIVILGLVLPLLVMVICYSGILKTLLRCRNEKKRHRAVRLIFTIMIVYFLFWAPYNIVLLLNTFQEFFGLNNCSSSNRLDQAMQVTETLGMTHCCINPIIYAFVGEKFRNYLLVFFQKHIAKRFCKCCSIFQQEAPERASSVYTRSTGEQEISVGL

In the case of All D, ttnyt (peptide), the EC50 [1] is reported as 2 nM.
In the case of “gp120 Bal-sCD4 complex (from UniProt P01730 26-396)”, the Kd [2] is reported as 0.46 nM and the percent inhibition of FITC-gp120Bal binding [3] is reported as greater than 80%.
“gp120 CM235-sCD4 complex (from UniProt P01730 26-396)” was tested, and the Kd [2] was 0.77 nM.
